According to US20240117385A1, “ENZYMES OF LUCIFERIN BIOSYNTHESIS AND USE THEREOF” (LIGHT BIO, INC., priority 2018, published 2024):

B1: SEQ ID NO: 129: plant type III polyketide synthase (PKS) (protein, listed as Polygonum cuspidatum)
chain: MAPAVADIRKAQRAEGPATVLAIGTATPPNCVYQKDYPDYYFRVTNSDHMTDLKEKFRRMCEKSNIEKRYMYLTEEILKENPNMCSYMQTSSLDTRQDMVVSEVPRLGKEAAQKAIKEWGQPKSKITHVIMCTTSGVDMPGADYQLTKLLGLHPSVKRFMMYQQGCFAGGTVLRLAKDLAENNRGARVLVVCSEITAICFRGPTDTHPDSMVGQALFGDGSGAVIIGADPDLSIEKPIFELVWTAQTILPDSEGAIDGHLREVGLTFHLLKDVPGLISKNIEKNLTEAFSPLNVSDWNSLFWIAHPGGPAILDQVETKLGLKEEKLKATRQVLNDYGNMSSACVLFIMDEMRKKSVENGHATTGEGLEWGVLFGFGPGLTVETVVLHSVPVAN
B2: SEQ ID NO: 123: type III polyketide synthase from Arabidopsis thaliana (protein, listed as Arabidopsis thaliana)
chain: MSNSRMNGVEKLSSKSTRRVANAGKATLLALGKAFPSQVVPQENLVEGFLRDTKCDDAFIKEKLEHLCKTTTVKTRYTVLTREILAKYPELTTEGSPTIKQRLEIANEAVVEMALEASLGCIKEWGRPVEDITHIVYVSSSEIRLPGGDLYLSAKLGLRNDVNRVMLYFLGCYGGVTGLRVAKDIAENNPGSRVLLTTSETTILGFRPPNKARPYDLVGAALFGDGAAAVIIGADPRECEAPFMELHYAVQQFLPGTQNVIEGRLTEEGINFKLGRDLPQKIEENIEEFCKKLMGKAGDESMEFNDMFWAVHPGGPAILNRLETKLKLEKEKLESSRRALVDYGNVSSNTILYVMEYMRDELKKKGDAAQEWGLGLAFGPGITFEGLLIRSLTSS
B3: SEQ ID NO: 133: plant type III polyketide synthase (PKS) (protein, listed as Rheum tataricum)
chain: MAPEESRHAETAVNRAATVLAIGTANPPNCYYQADFPDFYFRATNSDHLTHLKQKFKRICEKSMIEKRYLHLTEEILKENPNIASFEAPSLDVRHNIQVKEVVLLGKEAALKAINEWGQPKSKITRLIVCCIAGVDMPGADYQLTKLLGLQLSVKRFMFYHLGCYAGGTVLRLAKDIAENNKEARVLIVRSEMTPICFRGPSETHIDSMVGQAIFGDGAAAVIVGANPDLSIERPIFELISTSQTIIPESDGAIEGHLLEVGLSFQLYQTVPSLISNCIETCLSKAFTPLNISDWNSLFWIAHPGGRAILDDIEATVGLKKEKLKATRQVLNDYGNMSSACVFFIMDEMRKKSLANGQVTTGEGLKWGVLFGFGPGVTVETVVLSSVPLIT
B4: SEQ ID NO: 131: plant type III polyketide synthase (PKS) (protein)
chain: MATEEMKKLATVMAIGTANPPNCYYQADFPDFYFRVTNSDHLINLKQKFKRLCENSRIEKRYLHVTEEILKENPNIAAYEATSLNVRHKMQVKGVAELGKEAALKAIKEWGQPKSKITHLIVCCSAGVDMPGADYQLTKLLDLDPSVKRFMFYHLGCYAGGTVLRLAKDIAENNKGARVLIVCSEMTTTCFRGPSETHLDSMIGQAILGDGAAAVIVGADPDLTVERPIFELVSTAQTIVPESHGAIEGHLLESGLSFHLYKTVPTLISNNIKTCLSDAFTPLNISDWNSLFWIAHPGGPAILDQVTAKVGLEKEKLKVTRQVLKDYGNMSSATVFFIMDEMRKKSLENGQATTGEGLEWGVLFGFGPGITVETVVLRSVPVIS
modifications: Amino acid sequence of the mutant L132S PKS from Rheum palmatum, optimized for expression in Nicotiana benthamiana
B5: SEQ ID NO: 119: type III polyketide synthase PKS1 from Aquilaria sinensis (protein, listed as Aquilaria sinensis)
chain: MGSQDVAGGALKGVNPGKATILALGKAFPYQLVMQEFLVDGYFKNTSCKDQELKQKLARLCKTTTVKTRYVVMSEEILNKYPELAVEGIPTLKQRLDIGNEALTEMAIEASQACIKKWGRPASEITHLVYVSSSEARLPGGDLYLAQGLGLSPRTKRVVLYFMGCSGGVAGLRVAKDIAENNPGSRVLLATSETTIVGFKPPSAHRPYDLVGVALFGDGAGAMVIGSDPLPGTESPLFELHTAIQNFLPNTEKTIDGRLTEEGISFKLARELPQIVEDHIEGFCGQLTGVIGLSHKQYNKMFWAVHPGGPAILNRVEKRLDLHPNKLDASRRALEDYGNASSNSIVYVLDYMIEETLKMKTESLEPSEWGLILAFGPGVTFEGILARNLAV
B6: SEQ ID NO: 139: plant type III polyketide synthase (PKS) (protein, listed as Piper methysticum)
chain: MSKMVEEHWAAQRARGPATVLAIGTANPPNVLYQADYPDFYFRVTKSEHMTQLKEKFKRICDKSAIRKRHLHLTEELLEKNPNICAHMAPSLDARQDIAVVEVPKLAKEAATKAIKEWGRPKSDITHLIFCTTCGVDMPGADYQLTTLLGLRPTVRRTMLYQQGCFAGGTVLRHAKDFAENNRGARVLAVCSEFTVMNFSGPSEAHLDSMVGMALFGDGASAVIVGADPDFAIERPLFQLVSTTQTIVPDSDGAIKCHLKEVGLTLHLVKNVPDLISNNMDKILEEAFAPLGIRDWNSIFWTAHPGGAAILDQLEAKLGLNKEKLKTTRTVLREYGNMSSACVCFVLDEMRRSSLEEGKTTSGEGLEWGILLGFGPGLTVETVVLRSVPISTAN
B7: SEQ ID NO: 137: plant type III polyketide synthase (PKS) (protein, listed as Piper methysticum)
chain: MSKTVEDRAAQRAKGPATVLAIGTATPANVVYQTDYPDYYFRVTKSEHMTKLKNKFQRMCDRSTIKKRYMVLTEELLEKNLSLCTYMEPSLDARQDILVPEVPKLGKEAADEAIAEWGRPKSEITHLIFCTTCGVDMPGADYQLTKLLGLRSSVRRTMLYQQGCFGGGTVLRLAKDLAENNAGARVLVVCSEITTAVNFRGPSDTHLDLLVGLALFGDGAAAVIVGADPDPTLERPLFQIVSGAQTILPDSEGAINGHLREVGLTIRLLKDVPGLVSMNIEKCLMEAFAPMGIHDWNSIFWIAHPGGPTILDQVEAKLGLKEEKLKSTRAVLREYGNMSSACVLFILDEVRKRSMEEGKTTTGEGFDWGVLFGFGPGFTVETVVLHSMPIPKADEGR
B8: SEQ ID NO: 127: plant type III polyketide synthase (PKS) (protein, listed as Physcomitrella patens)
chain: B7 chain
B9: SEQ ID NO: 125: type III polyketide synthase from Hydrangea macrophylla (protein, listed as Hydrangea macrophylla)
chain: MATKSVAVEEMCKAQKAGGPATILAIGTAVPSNCYYQSEYPDFYFRVTKSDHLTDLKSKFKRMCERSSIKKRYMHLTEEILEENPNMCTFAAPSIDGRQDIVVKEIPKLAKEAASKAIKEWGQPKSNITHLVFCTTSGVDMPGCDYQLTRLLGLRPSIKRLMMYQQGCHAGGTGLRLAKDLAENNKGARVLVVCSEMTVINFRGPSEAHMDSLVGQSLFGDGASAVIVGSDPDLSTEHPLYQIMSASQIIVADSEGAIDGHLRQEGLTFHLRKDVPSLVSDNIENTLVEAFTPILMDSIDSIIDWNSIFWIAHPGGPAILNQVQAKVGLKEEKLRVSRHILSEYGNMSSACVFFIMDEMRKRSMEEGKGTTGEGLEWGVLFGFGPGFTVETIVLHSVPI
B10: SEQ ID NO: 121: type III polyketide synthase PKS2 from Aquilaria sinensis (protein, listed as Aquilaria sinensis)
chain: MSQAIADNAYRHHLKRAPTPGKATVLALGKAFPKQVIPQENLVEGYIRDTKCEDVSIKEKLERLCKTTTVKTRYTVMSKEILDNYPELVTEGSPTIRQRLEIANPAVVEMAKEASLACIKQWGRPAGDITHIVYVSSSEIRLPGGDLYLANELGLKNDINRIMLYFLGCYGGVTGLRVAKDIAENNPGSRILLTTSETTILGFRPPNKSRPYDLVGAALFGDGAAAVIIGANPEIGRESPFMELNFALQQFLPGTHGVIDGRLSEEGINFKLGRDLPQKIEDNIEDFCRKLMIKADGDLKEFNELFWAVHPGGPAILNRLESILDLKNGKLECSRRALMDYGNVSSNTIFYVMEYMREELKREGSEEWGLALAFGPGITFEGILLRSL

Each molecule was assayed on Pichia pastoris GS115 yeast cells expressing luciferase, hispidin hydroxylase and coumarate-CoA ligase 1 (assay: Screening of PKS for hispidin-synthase activity in yeast colonies sprayed with caffeic acid). Conditions: colonies sprayed with caffeic acid solution.
Format: cell-based
Source text: The selected nucleotide sequences for expression in Pichia pastoris yeast cells and Nicotiana benthamiana plant cells were optimized. The resulting nucleic acids were obtained synthetically and cloned into pGAPZ vector and used for verifying ability of the expressed proteins to synthesize hispidin.
For this purpose, in genome of Pichia pastoris GS115 yeast line, constitutively expressing Neonothopanus nambi luciferase and hispidin hydroxylase, obtained according to Example 1, there was additionally introduced pGAPZ plasmid, comprising gene of
Arabidopsis thaliana coumarate-CoA ligase 1 (which nucleotide and amino acid sequence are shown in SEQ ID NOs: 140, 141), also obtained by oligonucleotide synthesis. The plasmid was linearized at restriction site AvrII and used for transformation into Pichia pastoris GS115 cells.
The obtained yeast cells, constitutively expressing Neonothopanus nambi luciferase and hispidin hydroxylase and Arabidopsis thaliana coumarate-CoA ligase 1, were […] by plasmids comprising coding PKS sequences, and dispersed in Petri dishes with RDB medium, comprising 1 M of sorbitol, 2% (weight/volume) of glucose, 1.34% (weight/volume) of yeast nitrogen base (YNB), 0.005% (weight/volume) of amino acids mixture, 0.00004% (weight/volume) of biotin and 2% (weight/volume) of agar. To identify enzymes having hispidin-synthase activity, the obtained colonies were sprayed with caffeic acid solution, detecting hispidin-synthase presence in cells by occurrence of luminescence. Luminescence emitted by colonies was detected by means of IVIS Spectrum CT (Perkin Elmer, USA). Yeast line constitutively expressing luciferase, hispidin hydroxylase and coumarate-CoA ligase 1, and also wild yeast cells were used as negative control. […] Amino acid sequences coded by then are shown in SEQ ID NOs: 119, 121, 123, 125, 127, 129, 131, 133, 135, 137, 139 respectively.

| Molecule | hispidin-synthase activity | hispidin-synthase activity, comparison among PKS |
| --- | --- | --- |
| B1 | had hispidin-synthase activity |  |
| B2 | had hispidin-synthase activity | highest activity |
| B3 | had hispidin-synthase activity |  |
| B4 | had hispidin-synthase activity |  |
| B5 | had hispidin-synthase activity | highest activity |
| B6 | had hispidin-synthase activity |  |
| B7 | had hispidin-synthase activity |  |
| B8 | had hispidin-synthase activity |  |
| B9 | had hispidin-synthase activity | highest activity |
| B10 | had hispidin-synthase activity | highest activity |
